This data set deals with T1, CasEnd-18 (synthetic construct).
T1 chain: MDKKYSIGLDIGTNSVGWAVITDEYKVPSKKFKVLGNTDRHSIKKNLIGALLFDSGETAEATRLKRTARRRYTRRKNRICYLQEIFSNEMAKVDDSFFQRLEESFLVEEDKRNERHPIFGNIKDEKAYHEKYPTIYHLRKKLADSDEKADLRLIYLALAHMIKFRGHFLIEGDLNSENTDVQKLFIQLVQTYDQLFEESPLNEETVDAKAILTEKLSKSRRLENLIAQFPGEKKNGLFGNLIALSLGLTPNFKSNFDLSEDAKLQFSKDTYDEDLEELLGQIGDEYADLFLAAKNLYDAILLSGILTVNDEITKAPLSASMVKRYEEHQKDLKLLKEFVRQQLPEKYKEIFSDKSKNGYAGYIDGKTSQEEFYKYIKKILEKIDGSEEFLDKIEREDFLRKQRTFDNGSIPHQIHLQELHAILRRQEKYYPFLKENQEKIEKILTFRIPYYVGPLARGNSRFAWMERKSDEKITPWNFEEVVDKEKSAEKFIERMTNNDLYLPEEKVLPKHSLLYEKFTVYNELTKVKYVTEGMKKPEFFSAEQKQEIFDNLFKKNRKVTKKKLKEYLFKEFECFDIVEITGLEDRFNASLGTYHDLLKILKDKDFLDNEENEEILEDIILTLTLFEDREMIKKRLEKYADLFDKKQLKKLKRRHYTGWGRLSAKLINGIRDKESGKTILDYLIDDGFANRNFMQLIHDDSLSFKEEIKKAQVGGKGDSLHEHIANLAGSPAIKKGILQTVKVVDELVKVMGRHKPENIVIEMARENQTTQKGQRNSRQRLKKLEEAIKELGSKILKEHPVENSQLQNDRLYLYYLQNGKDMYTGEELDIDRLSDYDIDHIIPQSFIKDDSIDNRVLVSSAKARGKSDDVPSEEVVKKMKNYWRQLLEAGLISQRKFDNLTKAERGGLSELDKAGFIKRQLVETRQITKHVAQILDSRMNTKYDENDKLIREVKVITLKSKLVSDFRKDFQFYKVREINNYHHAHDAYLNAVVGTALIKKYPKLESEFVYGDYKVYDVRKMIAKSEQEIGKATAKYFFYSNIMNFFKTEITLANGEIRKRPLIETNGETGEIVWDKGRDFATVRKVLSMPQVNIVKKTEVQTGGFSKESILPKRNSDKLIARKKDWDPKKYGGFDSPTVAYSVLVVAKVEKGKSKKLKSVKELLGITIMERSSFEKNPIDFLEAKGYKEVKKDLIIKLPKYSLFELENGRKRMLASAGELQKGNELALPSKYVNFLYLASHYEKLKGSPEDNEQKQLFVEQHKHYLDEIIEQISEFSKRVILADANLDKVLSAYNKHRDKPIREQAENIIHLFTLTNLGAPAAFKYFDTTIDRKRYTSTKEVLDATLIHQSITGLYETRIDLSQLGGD
Briefly: cell_activity; +++; HEK293T; PAM not stated. The method, boiled down: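 Editing activity was scored as the fraction of GFP+ cells on day 4 by flow cytometry. BFP-expressing HEK293T cells (250,000) received by nucleofection 200 ng plasmid for the RT-Cas fusion protein and 200 ng template RNA plasmid designed to convert BFP to GFP.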

B1: BFP-to-GFP template RNA ; BFP reporter protospacer (ssRNA ; dsDNA)
RNA: GCCGAAGCACUGCACGCCGUGUUUUAGAGCUAGAAAUAGCAAGUUAAAAUAAGGCUAGUCCGUUAUCAACUUGAAAAAGUGGCACCGAGUCGGUGCACCCUGACGUACGGCGUGCAGUGCUU
DNA 1: GCCGAAGCACTGCACGCCGT
DNA 2: ACGGCGTGCAGTGCTTCGGC
For B1, the activity is ≥ 100 % of reference.

Values taken from patent US20250092426, “CAS ENDONUCLEASES AND RELATED METHODS” (Flagship Pioneering Innovations VII, LLC, published 2025).
